Measurements published in a protein production outcome set (Wang et al. 2014).

Experiment: label from the status in PepcDB records

| Sequence | protein production |
| --- | --- |
| SLKLFLFEFATCGERIEDSTAVEGLAMFKSAFDGFKNYYEITGFVRPEFSCLFTLPVDSMDSMEKYLEKSDAFLIIAPEDDFLLYTLTKKAEKYCENLGSSSRAIAVTSDKWELYKKLRGEVQVPQTSLRPLDCKFIIKPRTACAGEGIGFSDEVPDGHIAQEFIEGINLSVSLAVGEDVKCLSVNEQIINNFRYAGAVVPARISDEVKREVVEEAVRAVECVEGLNGYVGVDIVYSDQPYVIEINARLTTPVVAFSRAYGASVADLLAGGEVKHVRRQMVRKSKSAEKPYVSVGDYTLEIIDLD | not failed |
| SLNEGQEMEEQFALLLETLKNQQMNEFRELFLALHIYEQGQFYQSLDEKDRQHLYNYLSPKELADMFDVIEEDNENMKDYLAEMRPSYAADMLAEMYTDNAVDLLNMLDKSQKAKYLSLLSSEEAGEIKELLHYEDETAGAIMTTEFVSIVANQTVRSAMYVLKNQADMAETIYYVYVVDQENHLVGVISLRDLIVNDDDTLIADILNERVISVHVGDDQEDVAQTIRDYDFLAVPVTDYDDHLLGIVTVDDIIDVIDDEAASDYSGLAGVDVEEVSENPLKAASK | not failed |
| SLPHCETLLLEPIEGVLRITLNRPQSRNAMSLAMVGELRAVLAAVRDDRSVRALVLRGADGHFCAGGDIKDMAGARAAGAEAYRTLNRAFGSLLEEAQAAPQLLVALVEGAVLGGGFGLACVSDVAIAAADAQFGLPETSLGILPAQIAPFVVRRIGLTQARRLALTAARFDGREALRLGLVHFCEADADALEQRLEETLEQLRRCAPNANAATKALLLASESGELGALLDDAARQFAEAVGGAEGS | failed |
| SLRKERARSAEEPWTQNQQKLLELALQQYPRGSSDCWDKIARCVPSKSKEDCIARYKLLV | not failed |
| SLTSKNQFYKPGMLVPVFSAAGLLKNGRYQFLLQQIETLSLLPTEQYAQLYEALVYRFVEFVQVLPIRLDEPLCSLMNEGLLRGVNSLNHYIQNHPEATPLERYALFSAGLLLEVAHAVVNQKIFITDEEGNFIKQWNPFSGPLIDDVETKHYKIMPLSSYYQRNIPSITPILVRQLLPDEGFLWLTSDMRVFSDWMQALRDDEGEGGGRFEHVLQLFKHKNIDGLFNTLPALPVNLQDSPATAHADAFLNWLKEALATNQIKVNTSDAGVHVIPEGVFLEKTGIFKQYIDLHVNVPVNLFTVYQQFGNLFGLTKLSGIDYRFEQLFSEYPDALKRKSKMGFAGLIGIRRASPTREGVLIADPNLIFTRGEIPSATSYLKLSSAQKSQNIPMT | not failed |
| SNQDITQPTAIIAVVGVGAEQGIGAAVCRRFAQEKFKVYVAGRTLNKVEKVAAAIHRQGGQAVAYVLDAENEQQLQTLFDHLNDQPEALAAVIHNVGGNIPSIFLQSSLKFFSQMWRSTFLSSVLVAQRSLSIFQKQQQGTLIFTGASASLRGKPFFAAFSMGKSALRSYALNLAELYRSQNIHVAHVMVDGMVDGDRVNKALWGLGRLARLTRGTGGLNIDAIAENYWMLYQQNVDLWT | failed |
| SNRMTEMHVCLADAIQKDNRPEISNRLFRSNAVEKEILRVQKLLKNAKLAWMFTNCFPNTLDTTVHFRKGSDGKPDTFVYTGDIHAMWLRDSGAQVWPYVQLANSDPELKEMLAGVILRQFKCINIDPYANAFNDGAIPDGHWMSDLTDMKPELHERKWEIDSLCYPLRLAYHYWKTTGDASIFNEEWIQAITNVLKTFKEQQRKDGVGPYKFQRKTERALDTVSNDGLGAPVKPVGLIVSSFRPSDDATTLQFLVPSNFFAVSSLRKAAEILEKVNKKTALSKECKDLAQEVETALKKYAVYNHPKYGKIYAFEVDGFGNHHLMDDANVPSLLAMPYLGDVNVNDPIYQNTRRFVWSEDNPYFFKGKAGEGIGGPHIGYDMVWPMSIMMKAFTSQNDAEIKTCIKMLMDTDAGTGFMHESFHKDNPKKFTRAWFAWQNTLFGELILKLVNEGKVDLLNSIQ | not failed |
| SPEPYPPLVIETPAMEAAVTALIDRVFGPGRFAKSSERLREGNTLLADCSFVSLRDGAPVGCVRMWPVTIGGEPVAFLGPLAVDPDERSAGLGQALVEAACEAARAAGWRAVLLVGDGPYFGRVGFTNAHTAGVIMPGPVDQRRVLLLPLRDGG | failed |
| SQPLLDRSIPDFTAFTTVDDWLSAIKMVQYRDSFLTAGFTSLQLVTQMTSEDLLRIGITLAGHQKKILNSIHSMRVQISQSPTAMA | not failed |
